Assay results: US20230287113A1 (NANTBIO, published 2023)
Numbering of substitutions follows the chain as printed.

T1: human TIM-3 (T-cell immunoglobulin mucin receptor 3) (human, UniProt Q8TDQ0 22-202, limits assumed)
T1 sequence (looked up): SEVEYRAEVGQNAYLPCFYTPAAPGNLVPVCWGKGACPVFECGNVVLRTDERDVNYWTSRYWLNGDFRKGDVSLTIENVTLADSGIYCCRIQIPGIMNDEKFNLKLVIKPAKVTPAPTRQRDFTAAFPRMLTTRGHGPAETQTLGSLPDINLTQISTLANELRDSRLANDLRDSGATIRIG

B1: anti-TIM-3 IgG1 antibody 64-15 (antibody, V domains shown)
VH: EVQLVESGGGLVQPGGSLRLSCAASGFTFSSYYMHWVRQAPGKGLEWVSGISGSGGSTYYADSVKGRFTISRDNSKNTLYLQMNSLRAEDTAVYYCARGRGAWPFTRVVAFDVWGQGTLVTVSS
VL: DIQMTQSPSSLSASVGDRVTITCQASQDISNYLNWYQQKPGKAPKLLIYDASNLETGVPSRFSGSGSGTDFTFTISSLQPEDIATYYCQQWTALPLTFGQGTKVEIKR
notes: human IgG1; also called aTIM-3 IgG1 64-15
B2: anti-TIM-3 IgG1 antibody 64-6 (antibody, V domains shown)
VH: EVQLVESGGGLVQPGGSLRLSCAASGFTFSRYAMHWVRQAPGKGLEWVSAISGSGGYTYYADSVKGRFTISRDNSKNTLYLQMNSLRAEDTAVYYCARDRHWVLSAFDVWGQGTLVTVSS
VL: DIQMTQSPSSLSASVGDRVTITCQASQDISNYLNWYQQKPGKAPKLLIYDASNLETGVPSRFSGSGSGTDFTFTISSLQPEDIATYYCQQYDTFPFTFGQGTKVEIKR
notes: human IgG1; also called aTIM-3 IgG1 64-6
B3: anti-TIM-3 IgG1 antibody 66-6 (antibody, V domains shown)
VH: B2 VH with R31K, Y57S, R100L, H101D, W102Y, V103R, L104F, A106G
VL: DIQMTQSPSSLSASVGDRVTITCQASQDISNYLNWYQQKPGKAPKLLIYDASNLETGVPSRFSGSGSGTDFTFTISSLQPEDIATYYCQQFAAIPLTFGQGTKVEIKR
notes: human IgG1; The printed HC begins with M before EVQL; also called aTIM-3 IgG1 66-6
B4: anti-TIM-3 IgG1 antibody 64-39 (antibody, V domains shown)
VH: B2 VH with A50G, Y57G, R100L, H101D, W102Y, V103R, L104V, A106G
VL: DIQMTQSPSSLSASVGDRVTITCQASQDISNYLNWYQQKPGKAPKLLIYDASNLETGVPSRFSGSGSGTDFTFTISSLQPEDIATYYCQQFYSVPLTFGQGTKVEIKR
notes: human IgG1; The printed HC begins with M before EVQL; also called aTIM-3 IgG1 64-39
B5: anti-TIM-3 IgG1 antibody 64-32 (antibody, V domains shown)
VH: B2 VH with R31K, R100L, H101D, W102F, V103R, L104I, S105V, A106G
VL: B3 VL with A92N, A93T, I94V
notes: human IgG1; The printed HC begins with M before EVQL; also called aTIM-3 IgG1 64-32
B6: anti-TIM-3 IgG1 antibody 64-31 (antibody, V domains shown)
VH: EVQLVESGGGLVQPGGSLRLSCAASGFTFSAYAMHWVRQAPGKGLEWVSAINGNGGRTYYADSVKGRFTISRDNSKNTLYLQMNSLRAEDTAVYYCARDLTRTVPFAFDVWGQGTLVTVSS
VL: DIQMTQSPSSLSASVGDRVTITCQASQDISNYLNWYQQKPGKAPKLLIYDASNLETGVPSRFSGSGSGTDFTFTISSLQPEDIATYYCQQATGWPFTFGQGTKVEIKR
notes: human IgG1; The printed HC begins with M before EVQL; also called aTIM-3 IgG1 64-31

These binders were tested against T1, human TIM-3 (T-cell immunoglobulin …) (assay: ratio of KD at 37 C to KD at 25 C, SPR or Octet).
Excerpt: (§1) In one typical example, the inventors prepared antibodies using the above HC and LC sequences with matching preceding numbers and tested the so prepared antibodies for TIM3 binding. […] All values are ×10⁻⁹M. anti-TIM-3 IgG1 antibodies were captured on the chip surface using anti-human Fc antibody (SPR) or AHC sensor (Octet), and human TIM-3 was the analyte.

KD difference between 25° C. and 37° C. (fold)	Binder
7.61 fold	B1
5.43 fold	B2
4.15 fold	B3
4.18 fold	B4
2.36 fold	B5
3.51 fold	B6

What follows are binders tested against T1, human TIM-3 (T-cell immunoglobulin …) (assay: SPR (Pioneer FE) or Octet (Red96e), IgG1 captured by anti-human Fc / AHC sensor, human TIM-3 analyte, 25 C).
Excerpt: as §1

Kd	Binder
0.71 nM	B1
0.46 nM	B2
1.69 nM	B3
1.53 nM	B4
0.39 nM	B5
10.4 nM	B6

These binders were tested against T1, human TIM-3 (T-cell immunoglobulin …) (assay: SPR (Pioneer FE) or Octet (Red96e), IgG1 captured by anti-human Fc / AHC sensor, human TIM-3 analyte, 37 C).
Excerpt: as §1

Kd	Binder
5.4 nM	B1
2.5 nM	B2
7.01 nM	B3
6.39 nM	B4
0.92 nM	B5
36.5 nM	B6
